Reference: patent US20240141048A1 (published 2024)
Positions count from the first letter of the chain named. Where two headings read alike, the source gives them in different places.

Assays:
Assay in all cases: BLI
[1] = target: T1, His-tagged human VISTA extracellular domain protein (in house) (UniProt Q9H7M9 33-194)
[2] = target: T2, His-tagged cynomolgus VISTA extracellular domain protein (in house) (cynomolgus, UniProt A0A7N9IB00 33-194)
T2 chain: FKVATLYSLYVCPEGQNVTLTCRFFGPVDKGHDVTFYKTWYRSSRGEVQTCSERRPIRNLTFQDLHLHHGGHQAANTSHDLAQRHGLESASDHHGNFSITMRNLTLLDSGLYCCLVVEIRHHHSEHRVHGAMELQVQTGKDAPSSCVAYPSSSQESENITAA

[3] = target: T1, His-tagged human VISTA extracellular …; remark: listed apart in the source
[4] = target: T2, His-tagged cynomolgus VISTA …
[5] = target: T1, His-tagged human VISTA extracellular …; remark: listed apart in the source
[6] = target: T2, His-tagged cynomolgus VISTA …
[7] = target: T1, His-tagged human VISTA extracellular …; remark: listed apart in the source
[8] = target: T2, His-tagged cynomolgus VISTA …
[9] = target: T1, His-tagged human VISTA extracellular …; remark: listed apart in the source
[10] = target: T2, His-tagged cynomolgus VISTA …

T1 sequence (Q9H7M9 33-194): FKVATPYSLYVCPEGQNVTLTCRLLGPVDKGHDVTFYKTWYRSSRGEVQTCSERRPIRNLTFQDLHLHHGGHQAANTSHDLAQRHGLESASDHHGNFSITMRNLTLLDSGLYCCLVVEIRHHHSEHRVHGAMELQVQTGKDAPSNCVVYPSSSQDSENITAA

B1: anti-VISTA antibody 20E4 (antibody, V domains shown)
VH: QVQLQQSGAELMKPGASVKISCKATGYTFSSSWVEWVRQRPGHGLEWIGEIFPGSGSTHYNEKFKGKATFTADTSSNTAYLQLSSLTSDDSAVYYCARRPPGWFFDVWGAGTTVTVSS
VL: DIVMTQSHKFMSTSVGDRVSITCKASQDVSTDVAWYQQKPGQSPKLLIYSASYRYTGVPDRFTGSGSGTDFTFTISSVQAEDLAVYYCQQHYSTPWTFGGGTKLEIK
B1 gave a Kd [1] of 0.011 nM and a Kd [2] of 6.53 nM.

B2: anti-VISTA antibody 17E9 (antibody, V domains shown)
VH: QVQLQQSGAELMKPGASVKISCTATGYTFSSCWIEWVKQRPGHGLEWLGEILPGSDYTNYNEKFKDKATFTADTSSDTAYMQLSSLTSEDSAVYYCARRPPGWYFDVWGAGTAVTVSS
VL: B1 VL with V33I, Y55F, Q90H, H91Q, E105D
B2 showed a Kd [3] of 4.21 pM and a Kd [4] of 3.35 nM.

B3: anti-VISTA antibody 16A1 (antibody, V domains shown)
VH: B1 VH with V34I, R38K, T58L, H59N, Y60F
VL: B1 VL with S30T, A84T, T94S
Binder B3 has a Kd [5] of 2.78 pM and a Kd [6] of 2.57 nM.

B4: anti-VISTA antibody 15D11 (antibody, V domains shown)
VH: EVQLQQSGSELVKAGASVKLSCTASGFKIKDTFIHWVKQRPEQGLDWIGRIDPANGNSKYDPKFQGKATITADTSSNTAYLQLSSLTSEDTAVYYCARWPSNWEAMDYWGQGTSVTVSS
VL: QIVLTQSPAIMSASPGEKVTMTCSASSSVSYMYWYQQKPGSSPRLLIYDTSNLASGVPFRFSGSGSGTSYSLTISRMEAEDAATYYCQQWISYPLTFGTGTKLELK
Binder B4 has a Kd [7] of 12.5 nM and a Kd [8] of 5.83 pM.

B5: anti-VISTA antibody 9F9 (antibody, V domains shown)
VH: QVQFQQSGAELARPGASVKLSCKASGYTFTGYWMQWVKQRPGQGLEWIGAIYPGDGDTRYSQKFKGKVTLTADKSSSTAYMQLSSLASEDSAVYYCARRDYGAWFAYWGQGTLVTVSA
VL: DIKVTQSPSSMYASLGERVTITCKASQDINSYLSWFQQKPGKSPKTLIYRANRLVDGVPSRFSGSGSGQDYSLTISSLDYEDMGIYYCLQYDEFPYTFGGGTKLEIK
With B5 the Kd [9] was 2.45 nM and the Kd [10] was 7.37 nM.
